This is an account of results in US10214741B2, “Methods and compositions for inhibiting retinopathy of prematurity” (University of Utah Research Foundation, priority 2014, dated 2019).

For one series, the system named is macrophages. The series can be described thus: Macrophages in rat ROP and ROP+SO models. Format: in vivo. The note with it: 1 uL intravitreal. The text has this:
Activation of NADPH oxidase generally requires aggregation of a NOX isoform (NOX1-5, Duox1 or 2) with membrane bound p22phox; for NOX1-3 activation, aggregation with Rac1 and cytoplasmic subunits p47phox, p67phox or homologs is also required. Few studies address oxygen effects on NADPH oxidase regulated signaling in ROP or development. Studying NADPH oxidase in vivo is also complicated, because 1) of compensation from NOX isoforms or homologs, which differ in different tissues, and 2) most inhibitors are not specific. In this example, oxygen stresses were varied by using 3 different OIR models: ROP and ROP+SO models in rat and OIR model in mouse. NADPH oxidase-induced signaling in ECs was targeted by reducing leukocyte/macrophages, which generate ROS through NADPH oxidase, or with a transgenic mouse. In rat ROP and ROP+SO models, macrophages ˜75% (FIG. 7A) were reduced with 1 uL intravitreal clodronate). […] Macrophages have multiple effects on angiogenesis including through non-NADPH oxidase mechanisms, so a more specific method was used to study NADPH oxidase-related signaling. NOX 1, 2, 4 are known to be involved in pathologic retinal angiogenesis; NOX2 is in macrophages and ECs. Therefore p47phox−/− mice were used to reduce NADPH oxidase activation from NOX 1-3. […]

For the next series, the system named is rat ROP model. The series can be described thus: Lectin-stained retinal flat mounts, IVNV and AVA, rat ROP model (rat 50/10 OIR model). It counts as in vivo. The note with it: 1 uL intravitreal, ROP model.
For series [1], the system named is retina. The note with it: long-term periocular treatment; cited from earlier work.
Another series concerns EPOR. The series can be described thus: EPOR expression in hRMVECs (qPCR, Western blot). The conditions noted are these: overnight treatment, vs PBS. Format: cell-based, human. The text has this:
hRMVECs (Cell Systems, Kirkland, Wash.) were maintained in EGM-2 endothelial growth medium (Lonza, Walkers-ville, MD) supplemented with 5% fetal bovine serum. Cells of passage 3 to 5 were used for experiments. […]
For siRNA transfection, hRMVECs at 70% confluency were transfected in six-well plates with siRNAs targeting human EPOR, VEGFR2, or STAT3 (Life Technologies, Carlsbad, Calif.) using Lipofectamine 2000 reagent (Invitrogen by Life Technologies, Carlsbad, Calif.). A silencer selective negative control siRNA was used as control.
Total RNA of cells was extracted by TRI Reagent (Sigma-Aldrich, St. Louis, Mo.). For dissected retinas, total RNA was extracted using an RNeasy mini kit (Qiagen, Valencia, Calif.). RNA was quantified using a NanoDrop spectrophotometer (Thermo Fisher Scientific, Waltham, Mass.). cDNA was generated with the use of a high-capacity cDNA archive kit (Life Technologies, Carlsbad, Calif.). qPCR was performed on a Mastercycler ep realplex system (Eppendorf, Hauppauge, N.Y.) with the use of SYBR Green master mix (Roche Diagnostics, Indianapolis, Ind.) and primers synthesized by the core research facility of the University of Utah. Expression levels for VEGFA were normalized to the mean value of internal control β-actin. […]
Dissected retinas and hRMVECs were lysed in radioimmunoprecipitation assay buffer with 1:100 protease inhibitors (Roche Diagnostics, Indianapolis, Ind.) and 2 mmol/L sodium orthovanadate and were homogenized and centrifuged at 13,000 rpm (15,700 g) for 10 minutes at 4° C. Total protein in the supernatant fluid was quantified by a bicinchoninic acid assay (Pierce BCA; Thermo Fisher Scientific, Waltham, Mass.). […] Blots were visualized, and the relative densities of bands were calculated as described herein, using gel analysis software (UN-SCAN-IT gel, version 6.1; Silk Scientific, Orem, Utah). Relative activities were calculated as the ratio of phosphorylated to total protein or to β-actin and are expressed as fold difference compared with control. At least six samples from each group were measured and analyzed.
(Real-time PCR tracks product formation cycle by cycle.)

For a further series, the system named is STAT3. Kind of series: Western blot of STAT3 in 293T cotransfected with Lenti-VE-cad-GFP-driven shRNA and plasmid expressing coding sequence. It counts as cell-based, rat. The conditions noted are these: 293Ts. The text has this:
The strategy can be similar to knockdown of MC-expressed VEGFA, except a ve-cadherin promoter to target ECs can be used. The ve-cadherin promoter recruits polymerase II to drive miR30 embedded shRNAs. […] For control, shRNA targeted to luciferase (luc.shRNA), a nonmammalian gene, was used. Into a plasmid DNA expressing a Flag-tagged wild type (wt) coding sequence (wt-cDNA) for EPOR or VEGFR2, point mutations in the cognate region of the cDNA can be introduced where the shRNA binds to render the cDNA resistant to RISC cleavage without changing the native amino acid sequence (mut-cDNA). Then cotransfect 293T cells with either VEGFR2.shRNA or EPOR.shRNA and respective wt-cDNA or mut-cDNA. Off target effects can be determined by western blots of Flag expression or from interferon-induced genes using BLOCK-iT RNAi Stress Response Control Kit (Invitrogen, CA). Groups can be: rat EPOR.shRNAs+rat EPOR-wt-cDNA, rat EPOR. shRNAs+rat EPOR-mut-cDNA, rat VEGFR2.shRNA+rat VEGFR2-wt-cDNA or rat VEGFR2.shRNA+rat VEGFR2-mut-cDNA. Luc.shRNA and no DNA transfection can be controls. For specificity (FIG. 14A), lentiviral transduction of rECs, rat MCs (rMC-1s), human ARPE can be tested.
Using methods as in Example 5, 3 STAT3.shRNAs for knockdown in 293 Ts (FIG. 14D) were developed and tested. […]
(In general: A western blot detects proteins with antibodies after separation by electrophoresis.)

The subject of another series is pSTAT3. Kind of series: IHC densitometry of pSTAT3 colabeled with lectin, p18 rat ROP model. The conditions noted are these: injected at p10, 10^6 viral particles/inj, vs. luc.shRNA. It counts as in vivo.
For a further series, the system named is rMVECs. Kind of series: Lentivirus transduction specificity (ve-cadherin promoter) in cultured cells. It counts as cell-based. The conditions noted are these: rMVECs vs rat MC-1s, 293T.
In series [2] the test system is retina. The series can be described thus: TUNEL staining, retinal layer thickness, caspase 3 in retina, rat ROP model. Format: in vivo. The note with it: compared with PBS. The method, then: Whole eye globes were fixed in 4% PFA containing 10 mM sodium orthovanadate for 10 minutes. Corneas and lenses were removed, and posterior eyecups were fixed for another 15 minutes in 4% PFA, then incubated in 30% sucrose/PBS at 4° C. overnight, and mounted in optimal cutting temperature compound (Tissue-Tek; Electron Microscopy Sciences, Hatfield, Pa.). Cryosections (12 μm) were cut sequentially and stained for immunofluorescence analysis. Cryosections were incubated with rabbit anti-phosphorylated VEGFR2 (p-VEGFR2 at Y951; Santa Cruz Biotechnology, Santa Cruz, Calif.) overnight at 4° C. After washes, sections were incubated with AlexaFluor 405 conjugated goat anti-rabbit second antibody for p-VEGFR2 and lectin for 1 hour. Sections stained with only secondary antibody and DAPI were controls. […] For p-VEGFR2 in retinal vessels, the density of p-VEGFR2 colabeling with lectin-stained ECs of the primary vascular plexus at the junctions between avascular retina and vascular retina was measured with the threshold function of the Java-based imaging software (NIH). TUNEL-positive cells colabeled with tetramethylrhodamine red (TMR red) and diamino-2-phenylindole (DAPI) were counted in retinal sections imaged at ×4 magnification. Retinal thickness was measured from ganglion cell to ONL in DAPI-stained sections captured at ×40 magnification using Java-based imaging software (NIH). […]

For `O=P(O)(O)C(Cl)(Cl)P(=O)(O)O` [clodronate], the reduction of macrophages with macrophages is roughly 75%. Moreover, the AVA entry with rat ROP model is given as “not AVA”. Moreover, the IVNV entry in the series on rat ROP model (vs. PBS) was “significantly reduced”.
`CN(C)c1ccc(/C=C2\C(=O)Nc3ccccc32)cc1` [SU4312]: the retinal apoptosis result in the series with retina [1] is listed as “no retinal apoptosis”.

B1: vascular endothelial growth factor A (protein)
chain: APMAEGGGQNHHEVVKFMDVYQRSYCHPIETLVDIFQEYPDEIEYIFKPSCVPLMRCGGCCNDEGLECVPTEESNITMQIMRIKPHQGQHIGEMSFLQHNKCECRPKKDRARQENPCGPCSERRKHLFVQDPQTCKCSCKNTDSRCKARQLELNERTCRCDKPRR
notes: growth factor used at 20 ng/mL to stimulate hRMVECs
B1: the EPOR protein entry with EPOR (20 ng/mL VEGFA or 10 IU/mL EPO) was “increased EPOR mRNA expression (FIG. 35A) and protein levels”. For the same molecule, in the series with EPOR, the “EPOR mRNA expression” value is reported as “increased EPOR mRNA expression”.

B2: STAT3.shRNA2: lentivector-ve-cadherin STAT3.shRNA with the best knockdown; rat STAT3 (nucleic acid)
chain: TGCTGTTGACAGTGAGCGAATCGTGGATCTGTTCAGAAACTAGTGAAGCCACAGATGTAGTTTCTGAACAGATCCACGATCTGCCTACTGCCTCGGA
B2: in the series on STAT3, the “STAT3 knockdown among 3 STAT3.shRNAs” value is “best knockdown”. Besides, the “pSTAT3/STAT3 colabeling with lectin” value is recorded as “STAT3-lectin colabeling was reduced” in the series on pSTAT3 and “reduced” in the series on pSTAT3 (listed as STAT3.shRNA). The “cell specificity of transduction” value with rMVECs is reported as “showed specificity for rat MVECs”.

B3: luciferase.shRNA: control lentivector shRNA to the nonmammalian gene luciferase (nucleic acid)
DNA: TGCTGTTGACAGTGAGCGAAATGTTTACTACACTCGGATATAGTGAAGCCACAGATGTATATCCGAGTGTAGTAAACATTCTGCCTACTGCCTCGGA
For the molecule B3, in the series on retina [2], the “TUNEL+ cells” value is reported as “increased TUNEL+ cells at P18 but not at P25” and the “thickness of the retina, INL or ONL” value was “did not alter the thickness of the retina”.
